Test results from US5843648.
Each block holds one substance with its values, some of them ahead of it.

What was measured:
[1] = biological target: gp75 presented by HLA-A31 (COS cells transfected with gp75 plus HLA-A31) (human) (UniProt P17643)
[2] = biological target: gp75 with HLA-A24 (COS-7 cells transfected with gp75 + HLA-A24) (human) (UniProt P17643)
[3] = biological target: MART-1 with HLA-A24 (COS-7 cells transfected with MART-1 + HLA-A24) (human) (UniProt Q16655)
[4] = biological target: gp100 with HLA-A24 (COS-7 cells transfected with gp100 + HLA-A24) (human) (UniProt P40967)
[5] = biological target: tyrosinase presented by HLA-A24 (COS-7 cells transfected with tyrosinase + HLA-A24) (human)
[6] = biological target: p15 presented by HLA-A24 (293-A24 or COS-7 cells transfected with the p15 cDNA and HLA-A24) (human)
[7] = biological target: gp100 presented by HLA-A2 (COS cells transfected with gp100 plus HLA-A2) (human) (UniProt P40967)
[8] = biological target: MART-1 presented by HLA-A2 (COS cells transfected with MART-1 plus HLA-A2) (human) (UniProt Q16655)
[9] = biological target: p15 9-18 peptide … presented by HLA-A24 on 888 EBV B cells (human)
[10] = biological target: p15 10-18 peptide … presented by HLA-A24 on 888 EBV B cells (human)
[11] = biological target: Clone 2 (truncated p15 RT-PCR product from 888 EBV B cells) presented by HLA-A24 on COS-7 cells (human)
[12] = biological target: β-gal with HLA-A24 (COS-7 cells transfected with β-gal + HLA-A24) (human)
[13] = biological target: Clone 1 (full length p15 RT-PCR product from 888 EBV B cells) presented by HLA-A24 on COS-7 cells (human)
[14] = biological target: p15 9-18 peptide … presented by HLA-A24 on 888 EBV B cells (human); remark: listed apart in the source
[15] = biological target: p15 10-18 peptide … presented by HLA-A24 on 888 EBV B cells (human); remark: listed apart in the source
[16] = biological target: β-gal with HLA-A24 (COS-7 cells transfected with β-gal + HLA-A24) (human); remark: listed apart in the source
[17] = biological target: tyrosinase presented by HLA-A24 (COS-7 cells transfected with tyrosinase + HLA-A24) (human); remark: listed apart in the source
[18] = biological target: tyrosinase peptide T9206 (…) presented by HLA-A24 on 888 EBVB cells (human)
[19] = biological target: tyrosinase peptide T10166 (…) on HLA-A24+ 888 EBVB cells (human)
[20] = biological target: tyrosinase peptide T9180 (…) on HLA-A24+ 888 EBVB cells (human)
[21] = biological target: tyrosinase peptide T9181 (…) on HLA-A24+ 888 EBVB cells (human)
[22] = biological target: tyrosinase peptide T10206 (…) presented by HLA-A24 on 888 EBVB cells (human)
[23] = biological target: tyrosinase peptide T9199 (…) on HLA-A24+ 888 EBVB cells (human)
[24] = biological target: tyrosinase peptide T10199 (…) on HLA-A24+ 888 EBVB cells (human)
[25] = biological target: tyrosinase peptide T10209 (…) on HLA-A24+ 888 EBVB cells (human)
[26] = biological target: tyrosinase peptide T10180 (…) on HLA-A24+ 888 EBVB cells (human)
[27] = biological target: tyrosinase peptide T9177 (…) on HLA-A24+ 888 EBVB cells (human)
[28] = biological target: tyrosinase peptide T10213 (…) on HLA-A24+ 888 EBVB cells (human)

GM-CSF [1]: 770 pg/mL
Substance: TIL 586 (cells without a defined receptor)

GM-CSF [2]: 130 pg/mL | GM-CSF [3]: 140 pg/mL | GM-CSF [4]: 120 pg/mL | GM-CSF [5]: 1500 pg/mL | GM-CSF [6]: 60 pg/mL
Substance: TIL 888 (cells without a defined receptor)

GM-CSF [7]: 1500 pg/mL
Substance: TIL 1200 (cells without a defined receptor)

GM-CSF [8]: 1800 pg/mL
Substance: TIL 1235 (cells without a defined receptor)

GM-CSF [2]: 20 pg/mL | GM-CSF [3]: 20 pg/mL | GM-CSF [4]: 10 pg/mL | GM-CSF [5]: 20 pg/mL | GM-CSF (pg/ml) at 10 ug/ml peptide [9]: 780 pg/mL | GM-CSF (pg/ml) at 10 ug/ml peptide [10]: 910 pg/mL | GM-CSF [6]: 400 pg/mL | GM-CSF (pg/ml), Expt. 1 and Expt. 2 [11]: 300 pg/mL | GM-CSF (pg/ml), Expt. 1 and Expt. 2 [12]: 40 pg/mL | GM-CSF (pg/ml), Expt. 1 and Expt. 2 [13]: 740 pg/mL | minimum peptide concentration stimulating significant GM-CSF release [14]: 10 ng/mL | minimum peptide concentration stimulating significant GM-CSF release [15]: 10 ng/mL
Substance: TIL 1290 (cells without a defined receptor)
minimum peptide concentration sensitizing 888 EBV B cells for lysis (51Cr release) [14]: 10 ng/mL | minimum peptide concentration sensitizing 888 EBV B cells for lysis (51Cr release) [15]: 1 ng/mL

GM-CSF Secretion [16]: 30 pg/mL | GM-CSF Secretion [17]: 292 pg/mL | % specific lysis (E:T 40:1) (% specific lysis) [18]: 26 | % Specific Lysis (E:T 40:1) and GM-CSF (pg/ml) (% specific lysis) [19]: -1 | % Specific Lysis (E:T 40:1) and GM-CSF (pg/ml) (% specific lysis) [20]: 2 | % Specific Lysis (E:T 40:1) and GM-CSF (pg/ml) (% specific lysis) [21]: -1 | % Specific Lysis (E:T 40:1) and GM-CSF (pg/ml) (% specific lysis) [22]: 20 | % Specific Lysis (E:T 40:1) and GM-CSF (pg/ml) (% specific lysis) [23]: 0 | % Specific Lysis (E:T 40:1) and GM-CSF (pg/ml) (% specific lysis) [24]: 1 | % Specific Lysis (E:T 40:1) and GM-CSF (pg/ml) (% specific lysis) [25]: 0 | % Specific Lysis (E:T 40:1) and GM-CSF (pg/ml) (% specific lysis) [26]: 1 | % Specific Lysis (E:T 40:1) and GM-CSF (pg/ml) (% specific lysis) [27]: 0 | % Specific Lysis (E:T 40:1) and GM-CSF (pg/ml) (% specific lysis) [28]: 1
Substance: TIL 1413 (cells without a defined receptor)
